One assay addresses Env of SHIV-1157ipd3N4 (SHIV). The assay can be described thus: cell-based or functional assay.
For the next assay, the target named is Env of SHIV-BaL (SHIV). The assay can be described thus: cell-based or functional assay.
The target in a further assay is Env of SHIV-SF162P4 (SHIV). The assay can be described thus: cell-based or functional assay.
Another assay concerns the target MN gp120 (HIV-1).
The target of another assay is T1, B.63521_V1V2 Tags.
T1 Env construct: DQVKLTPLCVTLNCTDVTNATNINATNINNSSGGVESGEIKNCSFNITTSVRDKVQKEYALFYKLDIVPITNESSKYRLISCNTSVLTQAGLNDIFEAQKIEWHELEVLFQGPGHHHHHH
The assay can be described thus: ELISA, OD405.

For the next assay, the target named is B.040 gp140C. The assay can be described thus: ELISA, OD405. In general terms: An ELISA detects its analyte on a solid surface through an enzyme-linked reagent.
The target of the next assay is T2, G.con gp140CF.
T2 construct: also called G.con.env03 gp140CF
The assay can be described thus: ELISA, OD405.

The target in another assay is B. 681-7 gp140C. The assay can be described thus: ELISA, OD405.
In assay [1] the target is T3, B.62357 140C.
T3 construct: also called B.62357 gp140C
The assay can be described thus: ELISA, OD405.

For the next assay, the target named is B.63521 gp140C. The assay can be described thus: ELISA, OD405.
The target in a further assay is T4, B.HXB/BAL gp140CFI (HIV-1, UniProt P04578 33-680).
T4 construct: also called B.HxB/Ba gp140 CFI
The assay can be described thus: ELISA, OD405.

The target of assay [2] is T5, SIV CPZ US-1 gp140CF (SIVcpz).
T5 construct: also called US-1 SIVCPZ gp140CF
T5 chain: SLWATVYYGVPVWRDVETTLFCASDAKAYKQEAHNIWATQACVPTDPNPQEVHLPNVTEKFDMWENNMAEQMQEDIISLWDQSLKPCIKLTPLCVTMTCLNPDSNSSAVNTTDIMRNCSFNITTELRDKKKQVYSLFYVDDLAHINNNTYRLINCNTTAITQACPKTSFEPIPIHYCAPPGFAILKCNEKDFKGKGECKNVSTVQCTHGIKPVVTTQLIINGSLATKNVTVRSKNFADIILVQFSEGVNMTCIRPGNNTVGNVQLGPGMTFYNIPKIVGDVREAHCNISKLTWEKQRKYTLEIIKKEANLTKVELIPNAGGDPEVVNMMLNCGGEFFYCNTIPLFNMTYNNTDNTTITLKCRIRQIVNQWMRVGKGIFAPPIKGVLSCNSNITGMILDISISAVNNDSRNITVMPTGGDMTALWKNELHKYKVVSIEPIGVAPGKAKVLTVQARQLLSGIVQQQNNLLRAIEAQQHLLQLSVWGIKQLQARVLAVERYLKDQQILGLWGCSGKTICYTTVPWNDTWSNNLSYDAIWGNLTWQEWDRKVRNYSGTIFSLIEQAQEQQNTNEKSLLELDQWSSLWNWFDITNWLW
The assay can be described thus: ELISA, OD405.

The next assay addresses Con 6 gp120. The assay can be described thus: ELISA, OD405.
The next assay deals with B. 684-6 gp140C. The assay can be described thus: ELISA, OD405.
Another assay concerns the target T6, MLV gp70 carrier protein.
T6 construct: also called MuLV gp70
T6 carrier protein: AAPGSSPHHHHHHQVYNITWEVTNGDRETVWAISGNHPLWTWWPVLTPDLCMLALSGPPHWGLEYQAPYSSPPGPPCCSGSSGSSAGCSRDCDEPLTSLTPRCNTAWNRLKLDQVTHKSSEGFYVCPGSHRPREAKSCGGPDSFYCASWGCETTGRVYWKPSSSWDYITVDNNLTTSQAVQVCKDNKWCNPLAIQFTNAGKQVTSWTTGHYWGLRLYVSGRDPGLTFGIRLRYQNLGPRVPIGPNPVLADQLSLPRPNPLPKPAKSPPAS
The assay can be described thus: ELISA OD405nm, bar chart, antibody concentration not given.

Assay [3] addresses T5, SIV CPZ US-1 gp140CF. The assay is described as above.
The target of assay [4] is T7, B.62357 140C.
T7 construct: also called B.62357 gp140C
Described as above.

Another assay has as its target B.CaseA V1/V2 Tags. Described as above.
The target of the next assay is D.9009SA V1V2 Tags. The assay is described as above.
The target in assay [5] is T8, gp70 B.CaseA2 V1/V2 (HIV-1 V1V2 on murine leukemia virus gp70).
T8 construct: also called B.gp70CaseA2 V1/V2; gp70 B.CaseAV1V2
T8 chain: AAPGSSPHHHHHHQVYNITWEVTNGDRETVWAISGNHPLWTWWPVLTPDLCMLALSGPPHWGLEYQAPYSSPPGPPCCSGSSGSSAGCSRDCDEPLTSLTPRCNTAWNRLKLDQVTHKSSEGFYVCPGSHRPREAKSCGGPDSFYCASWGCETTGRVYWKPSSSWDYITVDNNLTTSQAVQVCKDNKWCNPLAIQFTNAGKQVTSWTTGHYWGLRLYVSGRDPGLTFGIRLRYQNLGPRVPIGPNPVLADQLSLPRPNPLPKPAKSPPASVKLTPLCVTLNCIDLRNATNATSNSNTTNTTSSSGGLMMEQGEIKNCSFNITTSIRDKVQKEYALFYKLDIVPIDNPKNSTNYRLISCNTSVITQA
The assay can be described thus: ELISA.

In another assay the target is J08 A.92RW020V1V2 (HIV-1). The assay can be described thus: SPR (BIAcore), mAb captured on anti-Fc surface, V1V2 protein injected as analyte, Synagis surface subtracted, global 1:1 Langmuir fit. (In SPR one partner is held on a chip, and binding of the other changes the refractive index at the surface.)
The target in assay [6] is T8, gp70 B.CaseA2 V1/V2. Described as above.

Where a chain is given by its changes, count along the chain named.

B1: CH59 (antibody, V domains shown)
VH: EVQLVESGGGLVQPGRSLRLSCAASGFTFDDGAMHWVRQAPGKGLEWVSGISWNSNIIAYADSVKGRFTISRDNAKNSLYLEMNSLRVEDTALYYCAKDSPRGELPLNYWGQGTLVTVSS
VL: SYELTQPPSVSVSPGQTARITCSGDALPKNYAYWYQQKSGQAPVLVIYEDSKRPSGIPERFSGSSSGTMATLTISGAQVEDEADYYCYSTDSSGNHRVFGGGTKLTVL
notes: also called mAb CH59
What is called IC50 is the concentration that inhibits the measured activity by half. In the case of B1, the “EC50, neutralization of SHIVC.1157ipd3N4 (tier 2)” value in the assay with Env of SHIV-1157ipd3N4 is greater than 50 µg/mL. Besides, the “EC50, neutralization of SHIV B.BaL (tier 2)” value in the assay with Env of SHIV-BaL was greater than 50 µg/mL. The “EC50, neutralization of SHIV B.SF162P4 (tier 2)” value in the assay with Env of SHIV-SF162P4 was greater than 50 µg/mL. In the assay with MN gp120, this molecule showed an IC50 of 10 to 100 nM. In addition, the binding result in the assay with B.63521_V1V2 Tags, with B.040 gp140C, with G.con gp140CF, with B. 681-7 gp140C, with B.62357 140C [1] and with B.63521 gp140C was “no binding (tested: 10 ug/ml)” each time. Besides, the binding result with B.HXB/BAL gp140CFI, with SIV CPZ US-1 gp140CF [2], with Con 6 gp120 and in the assay with B. 684-6 gp140C was “no binding (tested: 10 ug/ml)” each time.

B2: CH59 reverted unmutated ancestor antibody (antibody, V domains shown)
VH: B1 VH with G32Y, N56G, I57S, A59G, E82Q, V88A, L107F, N108D
VL: B1 VL with N30K
notes: also called CH59 RUA; CH59_RUA
In the case of B2, the binding result with MLV gp70 carrier protein, with SIV CPZ US-1 gp140CF [3], with B.62357 140C [4], with B.CaseA V1/V2 Tags and with D.9009SA V1V2 Tags was “no binding (tested: not given)” each time.

B3: 697D (antibody, V domains shown)
VH: QVQLVQSGAEVKKPGSSVKVSCKASGGNFNTYTISWVRQAPGQGLEWMGRIIPIFGIVNPAQKFPGRVTINVDKSTNTAYMELSSLRSEDTAVYYCATSGVGLHFGYFDYWGQGTQVTVSS
VL: QSVLTQPPSVSGAPGQRVTISCTGSSSNIGAHYDVHWYQQLPGTAPKLLIYGNSNRPSGVPDRFSGSKSGTSASLAITGLQAEDEADYYCQSYDSSLSGYVFGTGTKVTVL
notes: also called mAb 697D; V2 conformational mAb 697D
Usually EC50 stands for the concentration at which the effect is half-maximal. The low end stands for greater potency, the high end for weaker potency. In general, Kd refers to the free concentration of one partner at which half of the binding sites on the other are occupied at equilibrium, for simple one-to-one binding. Low values mean a tighter complex, high ones a looser complex. In general, koff refers to the rate constant with which the complex falls apart. Low values mean a long-lived complex, high ones a short-lived complex. By kon is commonly meant the second-order rate constant of association. A lower kon goes with slow association. In turn, B3 showed an EC50 in the assay with gp70 B.CaseA2 V1/V2 [5] of 0.04 µg/mL. In addition, in the assay with J08 A.92RW020V1V2, the Kd stood at 57.5 nM, the dissociation rate constant (koff) was 0.008 s⁻¹ and the kon came out at 140000 M⁻¹ s⁻¹. In the assay with gp70 B.CaseA2 V1/V2 [6], the Kd amounted to 36.5 nM, the koff was 0.00038 s⁻¹ and the kon worked out at 10000 M⁻¹ s⁻¹.

For the origin of these results see patent US9988424 (DUKE UNIVERSITY, dated 2018).
